# Source: the supplement of paper PMC10567573
# B1: IQUB (parent)
# chain: KIREKEEWIKLDYHRRHNPKTNED
# Variants of: B1
# Assay: protein stability index of a GFP-peptide fusion (GPS, HEK-293T) (PSI 1-6); higher = more stable
# Settings: c terminus: a fixed tail appended
# 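Further: lentivirally expressed fusions sorted by FACS into six bins by GFP to DsRed ratio, PSI derived from sequencing read proportions per bin multiplied by bin number.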
row,Variant,protein stability index
1,KIREYEEWIKLDYHRRHNPKTNED,3.92
2,KIREKAEWIKLDYHRRHNPKTNED,3.32
3,KIREKCEWIKLDYHRRHNPKTNED,4.35
4,KIREKDEWIKLDYHRRHNPKTNED,4.31
5,KIREKFEWIKLDYHRRHNPKTNED,3.56
6,KIREKGEWIKLDYHRRHNPKTNED,3.96
7,KIREKHEWIKLDYHRRHNPKTNED,3.98
8,KIREKKEWIKLDYHRRHNPKTNED,3.98
9,KIREKLEWIKLDYHRRHNPKTNED,2.7
10,KIREKMEWIKLDYHRRHNPKTNED,3.69
11,KIREKNEWIKLDYHRRHNPKTNED,4.52
12,KIREKPEWIKLDYHRRHNPKTNED,3.58
13,KIREKQEWIKLDYHRRHNPKTNED,4.47
14,KIREKREWIKLDYHRRHNPKTNED,4.66
15,KIREKSEWIKLDYHRRHNPKTNED,4.03
16,KIREKTEWIKLDYHRRHNPKTNED,4.41
17,KIREKVEWIKLDYHRRHNPKTNED,3.63
18,KIREKWEWIKLDYHRRHNPKTNED,2.61
19,KIREKYEWIKLDYHRRHNPKTNED,2.88
20,KIREKEAWIKLDYHRRHNPKTNED,4.74
21,KIREKECWIKLDYHRRHNPKTNED,4.61
22,KIREKEDWIKLDYHRRHNPKTNED,4.48
23,KIREKEFWIKLDYHRRHNPKTNED,3.34
24,KIREKEGWIKLDYHRRHNPKTNED,3.8

row,Variant,protein stability index
1,KIREKEHWIKLDYHRRHNPKTNED,4.34
2,KIREKEIWIKLDYHRRHNPKTNED,3.36
3,KIREKEKWIKLDYHRRHNPKTNED,4.03
4,KIREKELWIKLDYHRRHNPKTNED,2.68
5,KIREKEMWIKLDYHRRHNPKTNED,3.27
6,KIREKENWIKLDYHRRHNPKTNED,4.45
7,KIREKEPWIKLDYHRRHNPKTNED,3.6
8,KIREKEQWIKLDYHRRHNPKTNED,4.19
9,KIREKERWIKLDYHRRHNPKTNED,3.51
10,KIREKESWIKLDYHRRHNPKTNED,4.46
11,KIREKETWIKLDYHRRHNPKTNED,4.37
12,KIREKEVWIKLDYHRRHNPKTNED,3.99
13,KIREKEWWIKLDYHRRHNPKTNED,3.46
14,KIREKEYWIKLDYHRRHNPKTNED,3.31
15,KIREKEEAIKLDYHRRHNPKTNED,5.18
16,KIREKEECIKLDYHRRHNPKTNED,4.93
17,KIREKEEDIKLDYHRRHNPKTNED,5.13
18,KIREKEEEIKLDYHRRHNPKTNED,4.69
19,KIREKEEFIKLDYHRRHNPKTNED,4.24
20,KIREKEEGIKLDYHRRHNPKTNED,5.54
21,KIREKEEHIKLDYHRRHNPKTNED,4.99
22,KIREKEEIIKLDYHRRHNPKTNED,4.24
23,KIREKEEKIKLDYHRRHNPKTNED,5.19
24,KIREKEELIKLDYHRRHNPKTNED,4.94

row,Variant,protein stability index
1,KIREKEEMIKLDYHRRHNPKTNED,5.1
2,KIREKEENIKLDYHRRHNPKTNED,5.03
3,KIREKEEPIKLDYHRRHNPKTNED,5.25
4,KIREKEEQIKLDYHRRHNPKTNED,5.58
5,KIREKEERIKLDYHRRHNPKTNED,4.91
6,KIREKEESIKLDYHRRHNPKTNED,5.41
7,KIREKEETIKLDYHRRHNPKTNED,5.19
8,KIREKEEVIKLDYHRRHNPKTNED,5.07
9,KIREKEEYIKLDYHRRHNPKTNED,5.13
10,KIREKEEWAKLDYHRRHNPKTNED,5.24
11,KIREKEEWCKLDYHRRHNPKTNED,4.12
12,KIREKEEWDKLDYHRRHNPKTNED,5.22
13,KIREKEEWEKLDYHRRHNPKTNED,5.25
14,KIREKEEWFKLDYHRRHNPKTNED,3.96
15,KIREKEEWGKLDYHRRHNPKTNED,5.35
16,KIREKEEWHKLDYHRRHNPKTNED,4.45
17,KIREKEEWKKLDYHRRHNPKTNED,5.13
18,KIREKEEWLKLDYHRRHNPKTNED,4.66
19,KIREKEEWMKLDYHRRHNPKTNED,4.75
20,KIREKEEWNKLDYHRRHNPKTNED,5.07
21,KIREKEEWPKLDYHRRHNPKTNED,4.94
22,KIREKEEWQKLDYHRRHNPKTNED,5.24
23,KIREKEEWSKLDYHRRHNPKTNED,4.62
24,KIREKEEWTKLDYHRRHNPKTNED,5.1

row,Variant,protein stability index
1,KIREKEEWVKLDYHRRHNPKTNED,4.86
2,KIREKEEWYKLDYHRRHNPKTNED,4.73
3,KIREKEEWIALDYHRRHNPKTNED,4.65
4,KIREKEEWICLDYHRRHNPKTNED,4.15
5,KIREKEEWIDLDYHRRHNPKTNED,4.99
6,KIREKEEWIELDYHRRHNPKTNED,5.3
7,KIREKEEWIFLDYHRRHNPKTNED,4.68
8,KIREKEEWIGLDYHRRHNPKTNED,4.9
9,KIREKEEWIHLDYHRRHNPKTNED,4.56
10,KIREKEEWIILDYHRRHNPKTNED,4.16
11,KIREKEEWILLDYHRRHNPKTNED,4.04
12,KIREKEEWIMLDYHRRHNPKTNED,4.67
13,KIREKEEWINLDYHRRHNPKTNED,4.48
14,KIREKEEWIPLDYHRRHNPKTNED,5.26
15,KIREKEEWIQLDYHRRHNPKTNED,4.74
16,KIREKEEWIRLDYHRRHNPKTNED,4.92
17,KIREKEEWISLDYHRRHNPKTNED,4.68
18,KIREKEEWITLDYHRRHNPKTNED,4.97
19,KIREKEEWIVLDYHRRHNPKTNED,4.2
20,KIREKEEWIWLDYHRRHNPKTNED,3.17
21,KIREKEEWIYLDYHRRHNPKTNED,4.31
22,KIREKEEWIKADYHRRHNPKTNED,4.77
